Positions count from the first letter of the chain named.

We go through twelve molecules from patent US20250243286A1 (SIXPEAKS BIO, published 2025).

T1: human ActRIIB (human, UniProt Q13705 19-137, limits assumed)
T1 construct: antigen in MSD-SET; also called ACVR2B; ActR2B
T1 sequence: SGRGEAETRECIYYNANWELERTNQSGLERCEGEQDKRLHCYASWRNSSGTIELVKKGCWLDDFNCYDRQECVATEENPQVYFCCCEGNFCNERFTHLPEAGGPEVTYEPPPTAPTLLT

B1: Antibody Rippla (antibody, V domains shown)
VH: QVQLVQSGAEVRKPGASVKVSCKASGYTFTSSYINWVRQAPGQGLEWMGTINPVSGSTSYAQKFQGRVTMTRDTSISTAYMELSRLRSDDTAVYYCARGGWFDYWGQGTLVTVSS
VL: QSALTQPASVSGSPGQSITISCTGTSSDVGSYNRVNWYQQHPGKAPKLMIYGVSKRESGVSNRFSGSKSGNTASLTISGLQAEDEADYYCGTFAGGRYYGVFGGGTKLTVL
notes: full-length IgG; also called Ripp1a
B2: Antibody Hefaknöpfla (antibody, V domains shown)
VH: B1 VH with R12K, P53A
VL: B1 VL with Y32K, R34Y, R97K
notes: full-length IgG
B3: Antibody Riaba (antibody, V domains shown)
VH: B1 VH with R12K, P53A
VL: B1 VL with R34Y, E57D, R97K
notes: full-length IgG
B4: Antibody Duuranad (antibody, V domains shown)
VH: B1 VH with R12K, P53A
VL: B1 VL with Y32F, R34Y, Y51R, R97A
notes: full-length IgG
B5: Antibody Wurschdsalat (antibody, V domains shown)
VH: B1 VH with R12K, P53A, T74E
VL: B1 VL with R34Y, R97K
notes: full-length IgG
B6: Duuranad Fab (Fab, V domains shown)
VH: B1 VH with R12K, P53A
VL: B1 VL with Y32F, R34Y, Y51R, R97A
notes: Fab
B7: Hefaknöpfla Fab (Fab, V domains shown)
VH: B1 VH with R12K, P53A
VL: B1 VL with Y32K, R34Y, R97K
notes: Fab
B8: Wurschdsalat Fab (Fab, V domains shown)
VH: B1 VH with R12K, P53A, T74E
VL: B1 VL with R34Y, R97K
notes: Fab
B9: Ofaschlupfer Fab (Fab, V domains shown)
VH: B1 VH with R12K, A16S, P53A, M70I, R72A, I76T, R85S, D89E
VL: B1 VL with A8R, I18V, Y32K, R34Y, S61P, N62D, R97K
notes: Fab
B10: Schwardamaga Fab (Fab, V domains shown)
VH: B1 VH with R12K, A16S, P53A, M70I, R72A, I76T, R85S, D89E
VL: B1 VL with A8R, I18V, Y32A, R34Y, L48P, K55R, E57P, S61P, N62D, R97K
notes: Fab
B11: Bimagrumab Fab (Fab, V domains shown)
VH: B1 VH with R12K
VL: B1 VL with R34Y, E57P, R97S
notes: Fab
B12: Riaba Fab (Fab, V domains shown)
VH: B1 VH with R12K, P53A
VL: B1 VL with R34Y, E57D, R97K
notes: Fab

One test deals with T2, human ActRIIA (human, UniProt P27037 20-135, limits assumed).
T2 construct: antigen in MSD-SET; also called ACVR2A; ActR2A
T2 sequence (P27037 20-135 limits assumed): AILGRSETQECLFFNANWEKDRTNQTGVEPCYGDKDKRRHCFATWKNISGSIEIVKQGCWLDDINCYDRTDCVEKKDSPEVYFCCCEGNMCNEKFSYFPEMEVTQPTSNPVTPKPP
In words: MSD-SET.
As to B1, the “Fold Difference to bimagrumab” value came to 4 fold and the Kd (in general, the concentration at which binding is half-saturated) is 0.041 nM.

For a further test, the target named is T2, human ActRIIA. Put plainly: MSD-SET. The source holds these as a separate data set.
For the molecule B2, the dissociation constant Kd came out at 0.015 nM.
With B3, the “Fold Difference to bimagrumab” value came to 10 fold and the affinity, expressed as Kd, was 0.014 nM.

The target of a further test is T2, human ActRIIA. Put plainly: MSD-SET. The source holds these as a separate data set.
B2 registered a Kd of 0.015 nM.
As to B1, binding was put at a Kd of 0.041 nM.
Same read-out and setting: to B4 belongs 0.009 nM.
B3 came in with a Kd of 0.014 nM.
On to B5, for which binding was characterised by a dissociation constant (Kd) of 0.005 nM.

Another test has as its target T1, human ActRIIB. Put plainly: MSD-SET.
Turning to B1, the Kd was determined as 0.005 nM. This lies in the picomolar range.

Another test has as its target T2, human ActRIIA. In words: MSD-SET. The source holds these as a separate data set.
The molecule B2 yielded a Kd of 0.015 nM.
Molecule B1 returned a Kd of 0.042 nM.
In turn, B6 had an equilibrium dissociation constant (Kd) of 0.047 nM.
The same measure, in the same setting: to B7 belongs 0.091 nM.
For the molecule B4, the Kd worked out at 0.009 nM.
On the same count and under the same terms, in the case of B8 it was 0.125 nM.
On the same count and under the same terms, to B3 belongs 0.014 nM.
On the same count and under the same terms, to B5 belongs 0.005 nM.

Another test concerns the target T1, human ActRIIB. In words: MSD-SET. The source holds these as a separate data set.
With B1, the Kd was determined as 0.005 nM.

Another test has as its target T2, human ActRIIA. Put plainly: MSD-SET. The source holds these as a separate data set.
As for B2, the affinity, expressed as Kd, was 0.0123 nM.
Consider B4, for which the equilibrium dissociation constant (Kd) stood at 0.0212 nM.
Same read-out and setting: in the case of B5 it was 0.0218 nM.

A further test deals with T1, human ActRIIB. In words: MSD-SET. The source holds these as a separate data set.
The molecule B9 yielded a Kd of 0.0033 nM. In other words, the picomolar range.
Consider B10, for which the Kd came out at 0.0138 nM.

The next test has as its target T1, human ActRIIB. In words: MSD-SET. This is another data set of the same source.
In turn, B9 returned a Kd of 0.002 nM. This lies in the picomolar range.
On the same count and under the same terms, in the case of B10 it was 0.01 nM.

The target in the next test is mouse ActRIIA (mouse, UniProt P27038 20-135, limits assumed). In words: MSD-SET.
Chain of mouse ActRIIA (P27038 20-135 limits assumed): as the sequence (P27037 20-135 limits assumed) above, with K20R, V73I counted along it
As for B9, the Kd stood at 0.018 nM. In other words, the picomolar range.
In turn, B11 displayed a Kd of 0.239 nM.
In turn, B10 yielded a Kd of 0.039 nM.

The next test addresses Pig ActRIIA (pig, UniProt F1S0H6 20-135). In words: MSD-SET.
Regarding B9, the affinity, expressed as Kd, was 0.01 nM.
On to B11, for which the Kd stood at 0.188 nM.
As for B10, the Kd came out at 0.029 nM.

The target of a further test is Dog ActRIIA (dog, UniProt A0A8I3MYH0 20-135). Put plainly: MSD-SET.
B11 showed a Kd of 0.354 nM.
Molecule B10 returned a dissociation constant Kd of 0.044 nM.

For the next test, the target named is T3, ActRIIA and ActRIIB (on TGFB/SMAD SBE Reporter HEK293 cells) (human).
Experiment: not given
Consider B2, for which the IC50 (read off the curve); Activin-stimulated SMAD reporter gene assay turned out to be 0.2 nM.
B1 gave an IC50 (read off the curve); Activin-stimulated SMAD reporter gene assay of 0.2 nM.

The target of the next test is T3, ActRIIA and ActRIIB (on TGFB/SMAD SBE …).
Experiment: not given
The source holds these as a separate data set.
B2 gave an IC50 (read off the curve); Myostatin-stimulated SMAD reporter gene assay of 0.3 nM.
As to B1, the IC50 (read off the curve); Myostatin-stimulated SMAD reporter gene assay was 0.2 nM.

For a further test, the target named is T1, human ActRIIB. In words: MSD-SET, preliminary.
For the molecule B9, binding was characterised by a dissociation constant (Kd) of 0.0253 nM.
B10 showed a Kd of 0.0726 nM.

The next test concerns the target T1, human ActRIIB. In words: MSD-SET; Fab, not IgG.
With B6, the affinity, expressed as Kd, was 0.36 nM.
Regarding B7, the Kd is 0.228 nM. This Kd is about 1.6-fold lower than that of the molecule before.
The same measure, in the same setting: in the case of B12 it was 1.57 nM; in that of B8, 0.823 nM.

Another test concerns the target T3, ActRIIA and ActRIIB (on TGFB/SMAD SBE …). Put plainly: cell-based or functional assay.
On to B2, for which the IC50, Activin SMAD RGA turned out to be 0.139 nM; the IC50, Myostatin SMAD RGA came to 0.211 nM; the IC90, Activin SMAD RGA is 2.16 nM; the IC90, Myostatin SMAD RGA was 5.37 nM.
As to B1, the IC50, Activin SMAD RGA was 0.0582 nM; the IC50, Myostatin SMAD RGA came to 0.213 nM; the IC50 [nM] (assay not given) was determined as 0.0209 nM; the IC50 fold difference to bimagrumab (assay not given) was 25.6 fold. This molecule also came in with an IC90, Activin SMAD RGA of 1.58 nM; an IC90, Myostatin SMAD RGA of 9.65 nM; an IC90 [nM] (assay not given) of 1.27 nM; an IC90 fold difference to bimagrumab (assay not given) of 6.33 fold.
As for B4, the IC50, Activin SMAD RGA was determined as 0.272 nM; the IC50, Myostatin SMAD RGA is 0.432 nM; the IC90, Activin SMAD RGA was 2.22 nM; the IC90, Myostatin SMAD RGA is 4.45 nM.
For B3, in that order: 0.134 nM, 0.263 nM, 2.14 nM and 2.18 nM.
Molecule B5 showed an IC50, Activin SMAD RGA of 0.266 nM; an IC50, Myostatin SMAD RGA of 0.4 nM; an IC90, Activin SMAD RGA of 1.9 nM; an IC90, Myostatin SMAD RGA of 3.89 nM.

Another test shares this target. In words: cell-based or functional assay. The source holds these as a separate data set.
Regarding B2, the IC50 [nM] (assay not given) was found to be 0.011 nM, the IC50 fold difference to bimagrumab (assay not given) worked out at 27 fold, the IC90 [nM] (assay not given) is 1.6 nM and the IC90 fold difference to bimagrumab (assay not given) stood at 4.11 fold.
For B3, in that order: 0.0371 nM, 7.96 fold, 1.6 nM and 4.11 fold.

The target is the same in the next test. Put plainly: cell-based or functional assay. The source holds these as a separate data set.
B2 showed an IC50, Activin SMAD RGA of 0.13 nM and an IC50, Myostatin SMAD RGA of 0.26 nM.
For B1, in that order: 0.09 nM and 0.15 nM.
B6 displayed an IC50, Activin SMAD RGA of 6.19 nM; an IC50, Myostatin SMAD RGA of 7.85 nM; an IC50 fold difference (Fab:IgG), Activin SMAD RGA of 20.5 fold; an IC50 fold difference (Fab:IgG), Myostatin SMAD RGA of 20.2 fold.
B7 registered an IC50, Activin SMAD RGA of 4.06 nM; an IC50, Myostatin SMAD RGA of 3.7 nM; an IC50 fold difference (Fab:IgG), Activin SMAD RGA of 31.5 fold; an IC50 fold difference (Fab:IgG), Myostatin SMAD RGA of 14.2 fold.
On to B4, for which the IC50, Activin SMAD RGA is 0.3 nM and the IC50, Myostatin SMAD RGA came out at 0.39 nM.
Molecule B12 showed an IC50, Activin SMAD RGA of 27.9 nM; an IC50, Myostatin SMAD RGA of 64.6 nM; an IC50 fold difference (Fab:IgG), Activin SMAD RGA of 196 fold; an IC50 fold difference (Fab:IgG), Myostatin SMAD RGA of 199 fold.
In the case of B11, the IC50, Activin SMAD RGA came out at 4.39 nM and the IC50, Myostatin SMAD RGA amounted to 6.87 nM.
In turn, B8 returned an IC50, Activin SMAD RGA of 9.9 nM; an IC50, Myostatin SMAD RGA of 13.4 nM; an IC50 fold difference (Fab:IgG), Activin SMAD RGA of 33.8 fold; an IC50 fold difference (Fab:IgG), Myostatin SMAD RGA of 40.7 fold.
Take B3: the IC50, Activin SMAD RGA was 0.14 nM and the IC50, Myostatin SMAD RGA was found to be 0.33 nM.
B5 came in with an IC50, Activin SMAD RGA of 0.29 nM and an IC50, Myostatin SMAD RGA of 0.33 nM.

In a further test the target is T1, human ActRIIB. In words: MSD-SET, Fab KD over IgG KD.
As for B12, the “Fold difference (Fab:IgG)” value stood at 369 fold.

The next test has as its target T1, human ActRIIB. In words: MSD-SET; human ActRIIB; full-length IgG (Table 4B).
The molecule B2 came in with a Kd of 0.005 nM.
B4: binding was characterised by a dissociation constant (Kd) of 0.005 nM.
B3 had a Kd of 0.004 nM.
Consider B5, for which the Kd came to 0.006 nM.

In the next test the target is T1, human ActRIIB. In words: MSD-SET; human ActRIIB; full antibody, separate cross-reactivity study (Table 6A).
Turning to B2, the Kd was found to be 0.0043 nM.
The molecule B4 returned a Kd of 0.0054 nM.
As for B5, the Kd came to 0.0044 nM.
